System: MS2 coat protein
Test: apparent KD of MS2 coat protein; designed switch direction (-1 OFF switch, 1 ON switch): 1; higher = weaker reporter binding
Summary of the method: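 RNA switches sharing common flanks were transcribed by stalled E. coli RNA polymerase on Illumina chips. A doubling series of SNAP-549-labelled MS2 coat protein, from 0.7 or 1.5 nM to 3 µM, was applied in Tris-HCl pH 7.5 buffer with KCl, MgCl2, BSA, DTT, tRNA and Tween-20. Each step lasted 0.8–1.5 h at the bottom of the series and 10–20 min at the top. Normalised cluster fluorescence was curve-fitted, giving apparent KD as the per-design median over clusters.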

[1] = Eterna round: R95, input ligand: FMN 200 uM
[2] = Eterna round: R95, input ligand: microRNA oligo, concentration not stated
[3] = Eterna round: R95, input ligand: none
[4] = input ligand: microRNA oligo, concentration not stated

With “GGUCCAGCCUGAGCUGGACAAAAGCAUGUACAUGAGGAUCACCCAUGUUCAUGUACAAGCUUUUUGCUCGUCUUAUC [salish99_208a_r3_056] (puzzle: Sensor for hsa-mir-208a)” the “apparent KD of MS2 coat protein” value [1] was 431 nM, the “apparent KD of MS2 coat protein” value [2] was 14.6 nM and the “apparent KD of MS2 coat protein” value [3] was 664 nM.
For “GGUCCAGCCUGAGCUGGACCGAAGCAUGUACAUGAGGAUCACCCAUGUCAUGUACAGGCUUUUUGCUCGUCUUAUUG [JL-shm-2.12 JL Mod] (puzzle: Sensor for hsa-mir-208a)”, the “apparent KD of MS2 coat protein” value [1] was 685 nM, the “apparent KD of MS2 coat protein” value [2] was 15.7 nM and the “apparent KD of MS2 coat protein” value [3] was 694 nM.
In the case of “GGUCGGACUCACAUGAGGAUCACCCAUGUUCCGGAAACGGGACAGGAUAUCUGUCCGAAAAGGUCAGAGAAGGGUCUACCGACC [Fiskers NG3ss - 54] (Eterna round: R96, puzzle: Same State NG 3)”, the “apparent KD of MS2 coat protein” value (input ligand: FMN 200 uM) is reported as 353 nM, the “apparent KD of MS2 coat protein” value [4] is reported as 126 nM and the “apparent KD of MS2 coat protein” value (input ligand: none) is reported as 289 nM.
In the case of “GGUCGGACUCACAUGAGGAUCACCCAUGUUGCGGAAACGCCACAGGAUAUCUGUCCGAAAAGGUCAGAGAAGGGUGAACCGACC [Fiskers NG3ss - 63] (Eterna round: R96, puzzle: Same State NG 3)”, the “apparent KD of MS2 coat protein” value (input ligand: FMN 200 uM) is reported as 1460 nM, the “apparent KD of MS2 coat protein” value [4] is reported as 35.8 nM and the “apparent KD of MS2 coat protein” value (input ligand: none) is reported as 214 nM.
With “GGUGCCAAUAAAGCCUACAUGAGGAUCACCCAUGUAUGUAGGCAGGAUAUCGUUUGCUUUGCAAACGAGAAGGGCCGAGGCACC [JL SSNG3 1.19] (Eterna round: R96, puzzle: Same State NG 3)” the “apparent KD of MS2 coat protein” value (input ligand: FMN 200 uM) was 20.4 nM, the “apparent KD of MS2 coat protein” value [4] was 25.1 nM and the “apparent KD of MS2 coat protein” value (input ligand: none) was 42.7 nM.
With “GUAAAACAUGAGGAUCACCCAUGUAAUAAUAUGGGAGGAUAUCAGAUUUAAUUUAAUUUAUGAGAAGGCCUAAAGU [Mat - Same State 1 - Mod of Eli - D63] (puzzle: Same State 1)” the “apparent KD of MS2 coat protein” value [1] was 94.4 nM, the “apparent KD of MS2 coat protein” value [2] was 16.4 nM and the “apparent KD of MS2 coat protein” value [3] was 628 nM.
With “GUAAAACAUGAGGAUCACCCAUGUCAACAAAGUCGAGGAUAUGGGCAAAUAAAAUAAGAACCAGAAGGCGAAUAAC [salish99_SS1_r3_010] (puzzle: Same State 1)” the “apparent KD of MS2 coat protein” value [1] was 45.8 nM, the “apparent KD of MS2 coat protein” value [2] was 377 nM and the “apparent KD of MS2 coat protein” value [3] was 371 nM.
With “GUAAAGAAAUAAGGAUAUUGAAUACAUAUGUUUAACAUGAGGAUCACCCAUGUGGGUUGCGGUAUCGAGAAGGUAUAAUAAAAG [Mat - Same State NG 2 - JL mod - D8] (Eterna round: R96, puzzle: Same State NG 2)” the “apparent KD of MS2 coat protein” value (input ligand: FMN 200 uM) was 162 nM, the “apparent KD of MS2 coat protein” value [4] was 171 nM and the “apparent KD of MS2 coat protein” value (input ligand: none) was 168 nM.
With “GUAACAUGACGAGGAUAUGGAACAUGAGGAUCACCCAUGUAUGUUCCAUAACGCGAAUGACGAAUCCAGAAGGCGUCGUGAAUG [Mat - Same State NG 2 - JL mod - D29] (Eterna round: R96, puzzle: Same State NG 2)” the “apparent KD of MS2 coat protein” value (input ligand: FMN 200 uM) was 41.7 nM, the “apparent KD of MS2 coat protein” value [4] was 124 nM and the “apparent KD of MS2 coat protein” value (input ligand: none) was 220 nM.
With “GUAAUACAUGAGGAUCACCCAUGUCAAUGUAGUCGAGGAUAUGGGUAGCUAUGUGGCUUACUAGAAGGCGACGAGC [Same State 1 - Mod of Vinnie Teenbexe v.4] (puzzle: Same State 1)” the “apparent KD of MS2 coat protein” value [1] was 90.3 nM, the “apparent KD of MS2 coat protein” value [2] was 157 nM and the “apparent KD of MS2 coat protein” value [3] was 251 nM.
With “GUACAGAUCACAGGAUAUCACGUCGAUUAGACGUGAGAAGGGUGAUCACACAUGAAUAUUAAUACAUGAGGAUCACCCAUGUAC [SSNG1/16-A2] (Eterna round: R96, puzzle: Same State NG 1)” the “apparent KD of MS2 coat protein” value (input ligand: FMN 200 uM) was 65.6 nM, the “apparent KD of MS2 coat protein” value [4] was 22.5 nM and the “apparent KD of MS2 coat protein” value (input ligand: none) was 30.6 nM.
With “GUAGCAUACCGAGGAUAUUCAUAACAUGAGGAUCACCCAUGUAUUAGGCCACAUUAGUGGCCUUGGGAGAAGGCGGAAUGCUAC [Xeonanis - 20 Mod45] (Eterna round: R96, puzzle: Same State NG 2)” the “apparent KD of MS2 coat protein” value (input ligand: FMN 200 uM) was 12.1 nM, the “apparent KD of MS2 coat protein” value [4] was 11.9 nM and the “apparent KD of MS2 coat protein” value (input ligand: none) was 16.9 nM.
In the case of “GUAGCAUACCGAGGAUAUUCAUAACAUGAGGAUCACCCAUGUUAGGCCAGCAUUAGCUGGCCUUGGGAGAAGGCGGAAUGCUAC [Xeonanis - 20 Mod52] (Eterna round: R96, puzzle: Same State NG 2)”, the “apparent KD of MS2 coat protein” value (input ligand: FMN 200 uM) is reported as 17.5 nM, the “apparent KD of MS2 coat protein” value [4] is reported as 14.5 nM and the “apparent KD of MS2 coat protein” value (input ligand: none) is reported as 22.2 nM.
In the case of “GUAGCAUACCGAGGAUAUUCAUAAUACAUGAGGAUCACCCAUGUUAAUAAUAGGCGAAAGCCUUGGGAGAAGGCGGAAUGCUAC [Xeonanis - 20 Mod69] (Eterna round: R96, puzzle: Same State NG 2)”, the “apparent KD of MS2 coat protein” value (input ligand: FMN 200 uM) is reported as 11.4 nM, the “apparent KD of MS2 coat protein” value [4] is reported as 9.05 nM and the “apparent KD of MS2 coat protein” value (input ligand: none) is reported as 16.2 nM.

— the supplement of paper PMC9170038
